{"source": "paper PMC2667185", "molecular_target": "Mus musculus XRCC2 full length (Mus musculus) (UniProt Q9CX47)", "sequence (Q9CX47 whole entry, the tested form may be a part)": "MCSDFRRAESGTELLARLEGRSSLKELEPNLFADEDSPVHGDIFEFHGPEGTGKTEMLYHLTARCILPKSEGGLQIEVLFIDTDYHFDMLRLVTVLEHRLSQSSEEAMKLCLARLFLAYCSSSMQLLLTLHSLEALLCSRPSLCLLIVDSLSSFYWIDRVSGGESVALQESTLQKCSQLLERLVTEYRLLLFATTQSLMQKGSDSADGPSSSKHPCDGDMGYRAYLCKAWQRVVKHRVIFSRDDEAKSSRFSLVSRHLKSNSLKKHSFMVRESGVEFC", "test": "two-hybrid; same mated yeast; liquid β-galactosidase assay with ONPG as substrate, in triplicate, constructs in both the GAL4 activating and DNA binding domains"}
{"substance": "Mus musculus RAD51DΔ8 (splice variant product, exon 8 excluded) (from UniProt O55230 4-223) (natural protein)", "values": [{"measurement": "percent of the level of full-length RAD51D (β-galactosidase activity)", "value": 36, "unit": "%"}]}
